Measured values taken from patent publication US20180355056A1 (Novartis, published 2018).

Columns and labels:
Human FXI activated = molecular target: T1, Human FXI activated (human, UniProt P03951 19-387; P03951 388-625); assay: SET KD compared with the BIACORE KD for the FXI catalytic domain
T1 construct: The activity assay used Kordia HFXIa 1111a; also called huFXIa

Human FXI zymogen = molecular target: T2, Human FXI zymogen (human, UniProt P03951 19-625); assay: as above
T2 construct: also called huFXI; zymogen FXI
T2 sequence (P03951 19-625 C226S): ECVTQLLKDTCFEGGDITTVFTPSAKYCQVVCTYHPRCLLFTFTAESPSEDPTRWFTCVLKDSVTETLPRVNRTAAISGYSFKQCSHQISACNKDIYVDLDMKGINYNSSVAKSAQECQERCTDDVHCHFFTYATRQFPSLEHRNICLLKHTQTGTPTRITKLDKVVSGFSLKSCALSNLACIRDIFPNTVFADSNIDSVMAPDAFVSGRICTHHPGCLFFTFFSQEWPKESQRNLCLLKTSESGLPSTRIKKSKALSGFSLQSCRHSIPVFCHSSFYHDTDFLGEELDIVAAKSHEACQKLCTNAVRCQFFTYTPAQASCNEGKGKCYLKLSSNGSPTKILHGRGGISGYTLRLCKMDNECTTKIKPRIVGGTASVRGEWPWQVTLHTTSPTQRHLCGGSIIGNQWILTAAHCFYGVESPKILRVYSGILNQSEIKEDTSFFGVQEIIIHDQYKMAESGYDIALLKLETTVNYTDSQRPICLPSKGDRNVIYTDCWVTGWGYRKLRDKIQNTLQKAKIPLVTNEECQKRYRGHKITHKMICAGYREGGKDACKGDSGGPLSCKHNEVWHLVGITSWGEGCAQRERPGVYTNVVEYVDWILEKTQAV

T1 sequence (P03951 19-387 C226S, chain 1 of 2): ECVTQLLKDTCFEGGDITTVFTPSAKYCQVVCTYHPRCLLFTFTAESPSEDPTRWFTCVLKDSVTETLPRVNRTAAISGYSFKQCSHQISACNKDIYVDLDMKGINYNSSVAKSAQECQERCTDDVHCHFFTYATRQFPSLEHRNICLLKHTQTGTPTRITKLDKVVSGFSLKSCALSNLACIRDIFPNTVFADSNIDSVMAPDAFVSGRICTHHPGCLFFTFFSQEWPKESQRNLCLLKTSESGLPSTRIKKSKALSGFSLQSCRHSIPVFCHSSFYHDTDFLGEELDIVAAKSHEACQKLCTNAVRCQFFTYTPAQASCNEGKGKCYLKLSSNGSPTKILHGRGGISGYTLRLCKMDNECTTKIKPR
T1 sequence (P03951 388-625, chain 2 of 2): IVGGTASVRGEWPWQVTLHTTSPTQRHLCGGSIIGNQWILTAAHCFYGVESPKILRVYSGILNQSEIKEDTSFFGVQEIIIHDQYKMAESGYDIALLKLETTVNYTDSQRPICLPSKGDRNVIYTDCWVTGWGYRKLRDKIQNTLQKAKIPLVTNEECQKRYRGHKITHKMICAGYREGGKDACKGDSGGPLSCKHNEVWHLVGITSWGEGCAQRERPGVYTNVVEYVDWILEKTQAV

B1: NOV1401-Fab (Fab, V domains shown)
VH: QVQLLESGGGLVQPGGSLRLSCAASGFTFSTAAMSWVRQAPGKGLEWVSGISGSGSSTYYADSVKGRFTISRDNSKNTLYLQMNSLRAEDTAVYYCARELSYLYSGYYFDYWGQGTLVTVSS
VL: QSVLTQPPSASGTPGQRVTISCSGSSSNIGSNDVSWYQQLPGTAPKLLIYKNYNRPSGVPDRFSGSKSGTSASLAISGLQSEDEADYYCSAWDQRQFDVVFGGGTKLTVLG
notes: also called Fab portion of NOV1401
- fold higher affinity than to the catalytic domain (Human FXI activated): 66 times
- fold higher affinity than to the catalytic domain (Human FXI zymogen): 300 times
